Our source for the activity (% modification (median)) values is patent publication US20150291951.

Holding throughout (assay): cell_activity
Data set [1] deals with crhr1 right TALEN +63 (synthetic construct (Xanthomonas TALE-FokI)). To be noted: pair with P5, 15 bp spacer; 15-fold over +231.
The subject of data set [2] is crhr1 right TALEN +231 (synthetic construct (Xanthomonas TALE-FokI)). To be noted: pair with P7.
Data set [3] deals with crhr1 left TALEN +63 (synthetic construct (Xanthomonas TALE-FokI)). The settings on record: pair with P6, 15 bp spacer; 15-fold over +231.
Data set [4] has as its system crhr1 left TALEN +231 (synthetic construct (Xanthomonas TALE-FokI)). To be noted: pair with P8.
Data set [5] has as its system ponzr1 right TALEN +231 (pTAL) (synthetic construct (Xanthomonas TALE-FokI)). The settings on record: pair with P3; zebrafish larvae.
Data set [6] deals with ponzr1 left TALEN +231 (pTAL) (synthetic construct (Xanthomonas TALE-FokI)). To be noted: pair with P4; zebrafish larvae.

For “CTGCTGCCGACTGGACCCTGAGGT (double strand) [crhr1 right half-site]”, the activity (% modification (median)) is 7 in data set [1] and less than 1 in data set [2].
As for “TGCAACACTGAGCTCTGTAAACCT (double strand) [crhr1 left half-site]”, the figures for the activity (% modification (median)) in data set [3] and in data set [4] were 7 and less than 1, respectively.
Turning to “ATCAGAACAACAGTCAGAGAT (double strand) [ponzr1 right half-site]”, the activity (% modification (median)) in data set [5] is 5.
On to “GTGAGCACCCAGCGGACCTCCTCT (double strand) [ponzr1 left half-site]”, for which the activity (% modification (median)) in data set [6] worked out at 5.
